Experimental data as given in publication PMC9352680, “A comprehensive thermodynamic model for RNA binding by the Saccharomyces cerevisiae Pumilio protein PUF4”.
Substitutions are numbered along the chain they refer to. Names and notes keep the numbering of the source.

T1: PUF4 RNA-binding domain (Saccharomyces cerevisiae, UniProt P25339 537-888)
T1 sequence: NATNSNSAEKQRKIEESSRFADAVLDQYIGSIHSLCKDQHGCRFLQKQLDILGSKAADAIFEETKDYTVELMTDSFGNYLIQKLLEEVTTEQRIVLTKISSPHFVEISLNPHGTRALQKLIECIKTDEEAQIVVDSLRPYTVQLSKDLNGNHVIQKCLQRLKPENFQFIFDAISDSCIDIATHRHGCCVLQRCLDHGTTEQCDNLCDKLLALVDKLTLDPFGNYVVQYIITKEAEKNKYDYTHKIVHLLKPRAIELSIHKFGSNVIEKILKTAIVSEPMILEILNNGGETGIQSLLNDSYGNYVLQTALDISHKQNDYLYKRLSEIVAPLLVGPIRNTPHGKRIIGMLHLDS

B1: Id_ii_S2_P3E.2_K3.1_C3.2_[C-2G]_[T-1G]_H3.1_A3.1_F3.1_T3.2_[T9A]_[A10G] (ssRNA)
RNA: UUUGAUUAAUAUGAUAUCGUUCUUUCUGGUGUAUAUAAGUUCUUUCUCGAUAUCAUAUUAAUCUUU
B2: Id_ii_S2_P3E.2_K3.1_C3.2_[C-2A]_[T-1G]_H3.1_A3.1_F3.1_T3.2_[A10T] (ssRNA)
RNA: B1 RNA with G28A, A38U, G39U
B3: Id_ii_S2_P3E.2_K3.1_C3.2_[C-2G]_[T-1C]_H3.1_A3.1_F3.1_T3.2_[A10T] (ssRNA)
RNA: B1 RNA with G29C, A38U, G39U
B4: Id_ii_S2_P3E.2_K3.1_C3.2_[C-2T]_H3.1_A3.1_F3.1_T3.2_[T9A]_[A10T] (ssRNA)
RNA: B1 RNA with G28U, G29U, G39U
B5: Id_ii_S2_P3E.2_K3.1_C3.2_[C-2T]_H3.1_A3.1_F3.1_T3.2_[T9A] (ssRNA)
RNA: B1 RNA with G28U, G29U, G39A
B6: Id_ii_S2_P3E.2_K3.1_C3.2_[C-2G]_[T-1G]_H3.1_A3.1_F3.1_T3.2_[A10G] (ssRNA)
RNA: B1 RNA with A38U
B7: Id_ii_S2_P3E.2_K3.1_C3.2_[C-2T]_[T-1A]_H3.1_A3.1_F3.1_T3.2_[T9A] (ssRNA)
RNA: B1 RNA with G28U, G29A, G39A
B8: Id_ii_S2_P3E.2_K3.1_C3.2_[C-2T]_H3.1_A3.1_F3.1_T3.2 (ssRNA)
RNA: B1 RNA with G28U, G29U, A38U, G39A
B9: Id_ii_S2_P3E.2_K3.1_C3.2_[C-2T]_[T-1C]_H3.1_A3.1_F3.1_T3.2_[T9C]_[A10C] (ssRNA)
RNA: B1 RNA with G28U, G29C, A38C, G39C
B10: Id_ii_S2_P3E.2_K3.1_C3.2_[C-2T]_[T-1C]_H3.1_A3.1_F3.1_T3.2_[T9C]_[A10G] (ssRNA)
RNA: B1 RNA with G28U, G29C, A38C
B11: Id_ii_S2_P3E.2_K3.1_C3.2_[C-2T]_[T-1C]_H3.1_A3.1_F3.1_T3.2_[A10T] (ssRNA)
RNA: B1 RNA with G28U, G29C, A38U, G39U
B12: Id_ii_S2_P3E.2_K3.1_C3.2_[C-2T]_[T-1A]_H3.1_A3.1_F3.1_T3.2_[T9C]_[A10T] (ssRNA)
RNA: B1 RNA with G28U, G29A, A38C, G39U
B13: Id_ii_S2_P3E.2_K3.1_C3.2_[C-2G]_H3.1_A3.1_F3.1_T3.2_[A10T] (ssRNA)
RNA: B1 RNA with G29U, A38U, G39U
B14: Id_ii_S2_P3E.2_K3.1_C3.2_[C-2T]_H3.1_A3.1_F3.1_T3.2_[A10G] (ssRNA)
RNA: B1 RNA with G28U, G29U, A38U
B15: Id_ii_S2_P3E.2_K3.1_C3.2_[C-2T]_[T-1A]_H3.1_A3.1_F3.1_T3.2_[A10G] (ssRNA)
RNA: B1 RNA with G28U, G29A, A38U
B16: Id_ii_S2_P3E.2_K3.1_C3.2_[C-2T]_[T-1C]_H3.1_A3.1_F3.1_T3.2_[T9C]_[A10T] (ssRNA)
RNA: B1 RNA with G28U, G29C, A38C, G39U
B17: Id_ii_S2_P3E.2_K3.1_C3.2_[C-2T]_H3.1_A3.1_F3.1_T3.2_[T9G]_[A10T] (ssRNA)
RNA: B1 RNA with G28U, G29U, A38G, G39U
B18: Id_ii_S2_P3E.2_K3.1_C3.2_[C-2T]_H3.1_A3.1_F3.1_T3.2_[T9C]_[A10C] (ssRNA)
RNA: B1 RNA with G28U, G29U, A38C, G39C
B19: Id_ii_S2_P3E.2_K3.1_C3.2_[C-2A]_[T-1G]_H3.1_A3.1_F3.1_T3.2_[A10C] (ssRNA)
RNA: B1 RNA with G28A, A38U, G39C
B20: Id_ii_S2_P3E.2_K3.1_C3.2_[C-2T]_H3.1_A3.1_F3.1_T3.2_[A10T] (ssRNA)
RNA: B1 RNA with G28U, G29U, A38U, G39U
B21: Id_ii_S2_P3E.2_K3.1_C3.2_[C-2T]_[T-1A]_H3.1_A3.1_F3.1_T3.2_[T9G]_[A10C] (ssRNA)
RNA: B1 RNA with G28U, G29A, A38G, G39C
B22: Id_ii_S2_P3E.2_K3.1_C3.2_[C-2T]_[T-1A]_H3.1_A3.1_F3.1_T3.2_[A10T] (ssRNA)
RNA: B1 RNA with G28U, G29A, A38U, G39U
B23: Id_ii_S2_P3E.2_K3.1_C3.2_[C-2T]_[T-1G]_H3.1_A3.1_F3.1_T3.2_[A10T] (ssRNA)
RNA: B1 RNA with G28U, A38U, G39U
B24: Id_ii_S2_P3E.2_K3.1_C3.2_[C-2T]_[T-1A]_H3.1_A3.1_F3.1_T3.2_[T9A]_[A10C] (ssRNA)
RNA: B1 RNA with G28U, G29A, G39C
B25: Id_ii_S2_P3E.2_K3.1_C3.2_[C-2G]_H3.1_A3.1_F3.1_T3.2_[T9C]_[A10T] (ssRNA)
RNA: B1 RNA with G29U, A38C, G39U
B26: Id_ii_S2_P3E.2_K3.1_C3.2_[C-2G]_H3.1_A3.1_F3.1_T3.2_[A10C] (ssRNA)
RNA: B1 RNA with G29U, A38U, G39C
B27: Id_ii_S2_P3E.2_K3.1_C3.2_[C-2T]_[T-1A]_H3.1_A3.1_F3.1_T3.2_[T9G]_[A10T] (ssRNA)
RNA: B1 RNA with G28U, G29A, A38G, G39U
B28: Id_ii_S2_P3E.2_K3.1_C3.2_[C-2T]_[T-1G]_H3.1_A3.1_F3.1_T3.2_[A10C] (ssRNA)
RNA: B1 RNA with G28U, A38U, G39C
B29: Id_ii_S2_P3E.2_K3.1_C3.2_[C-2A]_[T-1G]_H3.1_A3.1_F3.1_T3.2_[A10G] (ssRNA)
RNA: B1 RNA with G28A, A38U
B30: Id_ii_S2_P3E.2_K3.1_C3.2_[C-2T]_[T-1G]_H3.1_A3.1_F3.1_T3.2_[T9G]_[A10C] (ssRNA)
RNA: B1 RNA with G28U, A38G, G39C
B31: Id_ii_S2_P3E.2_K3.1_C3.2_[C-2T]_H3.1_A3.1_F3.1_T3.2_[T9A]_[A10C] (ssRNA)
RNA: B1 RNA with G28U, G29U, G39C
B32: Id_ii_S2_P3E.2_K3.1_C3.2_[C-2A]_[T-1G]_H3.1_A3.1_F3.1_T3.2_[T9A]_[A10G] (ssRNA)
RNA: B1 RNA with G28A
B33: Id_ii_S2_P3E.2_K3.1_C3.2_[C-2T]_[T-1A]_H3.1_A3.1_F3.1_T3.2_[T9A]_[A10T] (ssRNA)
RNA: B1 RNA with G28U, G29A, G39U
B34: Id_ii_S2_P3E.2_K3.1_C3.2_[C-2G]_[T-1G]_H3.1_A3.1_F3.1_T3.2_[T9A]_[A10T] (ssRNA)
RNA: B1 RNA with G39U
B35: Id_ii_S2_P3E.2_K3.1_C3.2_[C-2T]_H3.1_A3.1_F3.1_T3.2_[T9C]_[A10T] (ssRNA)
RNA: B1 RNA with G28U, G29U, A38C, G39U
B36: Id_ii_S2_P3E.2_K3.1_C3.2_[C-2G]_[T-1C]_H3.1_A3.1_F3.1_T3.2_[T9C]_[A10G] (ssRNA)
RNA: B1 RNA with G29C, A38C
B37: Id_ii_S2_P3E.2_K3.1_C3.2_[C-2A]_[T-1C]_H3.1_A3.1_F3.1_T3.2_[T9G]_[A10C] (ssRNA)
RNA: B1 RNA with G28A, G29C, A38G, G39C
B38: Id_ii_S2_P3E.2_K3.1_C3.2_[C-2T]_[T-1G]_H3.1_A3.1_F3.1_T3.2_[T9C]_[A10C] (ssRNA)
RNA: B1 RNA with G28U, A38C, G39C
B39: Id_ii_S2_P3E.2_K3.1_C3.2_[C-2T]_[T-1G]_H3.1_A3.1_F3.1_T3.2_[T9G]_[A10T] (ssRNA)
RNA: B1 RNA with G28U, A38G, G39U
B40: Id_ii_S2_P3E.2_K3.1_C3.2_[C-2G]_H3.1_A3.1_F3.1_T3.2_[T9A]_[A10G] (ssRNA)
RNA: B1 RNA with G29U
B41: Id_ii_S2_P3E.2_K3.1_C3.2_[C-2T]_[T-1A]_H3.1_A3.1_F3.1_T3.2_[A10C] (ssRNA)
RNA: B1 RNA with G28U, G29A, A38U, G39C
B42: Id_ii_S2_P3E.2_K3.1_C3.2_[C-2T]_H3.1_A3.1_F3.1_T3.2_[T9C]_[A10G] (ssRNA)
RNA: B1 RNA with G28U, G29U, A38C
B43: Id_ii_S2_P3E.2_K3.1_C3.2_[C-2T]_H3.1_A3.1_F3.1_T3.2_[A10C] (ssRNA)
RNA: B1 RNA with G28U, G29U, A38U, G39C
B44: Id_ii_S2_P3E.2_K3.1_C3.2_[C-2G]_H3.1_A3.1_F3.1_T3.2_[T9C]_[A10C] (ssRNA)
RNA: B1 RNA with G29U, A38C, G39C
B45: Id_ii_S2_P3E.2_K3.1_C3.2_[C-2T]_[T-1C]_H3.1_A3.1_F3.1_T3.2_[T9C] (ssRNA)
RNA: B1 RNA with G28U, G29C, A38C, G39A

target: T1, PUF4 RNA-binding domain; experiment: Mg; RNA-MaP; 20 mM Na-HEPES pH 7.4, 30 mM KOAc, 0.75 mM MgCl2, 0.1% Tween-20, 5% glycerol, 0.1 mg/mL BSA, 2 mM DTT; 25 C; 0.0125-409.6 nM protein; settings: tags: N-His6-TEV cleaved; C-SNAP kept, Cy3B-labelled; label: tethered on chip by stalled RNA polymerase

| Binder | Kd [nM] |
| --- | --- |
| UCUCUUUUUAUUAGUAUCUCUU (ssRNA) [Ib_S1_P5E.1_K5.1_C5.1_H5.1_[G2T]_A5.1_F5.1_[T8G]_T5.1] | > 2300 |
| UCUCUUUAUAUUACUAUCUCUU (ssRNA) [Ib_S1_P5E.1_K5.1_C5.1_H5.1_[G2A]_A5.1_F5.1_[T8C]_T5.1] | 728 |
| UCUCUUCUACACUUAUUAUAUCUCUU (ssRNA) [Id_ii_S1_P5E.4_K5.3_C5.2_H5.3_A5.1_F5.1_T5.2] | > 2300 |
| UCUCUUUGUAUUAUAAUCUCUU (ssRNA) [Ia_S1_P5E.1_K5.1_C5.1_H5.1_A5.1_F5.1_[T9A]_T5.1] | 2.37 |
| UCUCUUUGUAUUAUAUUCUCUU (ssRNA) [Ib_S1_P5E.1_K5.1_C5.1_H5.1_A5.1_F5.1_[T9A]_[A10T]_T5.1] | 1.1 |
| UCUCUUAGUAUUAGUAUCUCUU (ssRNA) [Ib_S1_P5E.1_K5.1_C5.1_H5.1_[T1A]_A5.1_F5.1_[T8G]_T5.1] | > 2300 |
| B1 | 11.8 |
| B2 | 4.88 |
| B3 | 1.77 |
| B4 | 4.47 |
| B5 | 6.87 |
| B6 | 5.15 |
| B7 | 16.9 |
| B8 | 1.24 |
| B9 | 3.42 |
| B10 | 7.76 |
| B11 | 1.17 |
| B12 | 5.43 |
| B13 | 2.02 |
| B14 | 2.61 |
| B15 | 31.5 |
| B16 | 4.12 |
| B17 | 2.77 |
| B18 | 2.82 |
| B19 | 38.5 |
| B20 | 1.56 |
| B21 | 5.76 |

| Binder | Kd [nM] |
| --- | --- |
| B22 | 3.9 |
| B23 | 1.33 |
| B24 | 16.3 |
| B25 | 44.5 |
| B26 | 8.98 |
| B27 | 7.14 |
| B28 | 3.49 |
| B29 | 5.7 |
| B30 | 6.53 |
| B31 | 4.14 |
| B32 | 10.2 |
| B33 | 14.1 |
| B34 | 3.82 |
| B35 | 4.94 |
| B36 | 20.2 |
| B37 | 7.15 |
| B38 | 26.5 |
| B39 | 3.09 |
| B40 | 7.87 |
| B41 | 6.09 |
| B42 | 3.7 |
| B43 | 1.55 |
| B44 | 18 |
| B45 | 7.13 |
| UCUCUUCGUAUUAGUAUCUCUU (ssRNA) [Ib_S1_P5E.1_K5.1_C5.1_H5.1_[T1C]_A5.1_F5.1_[T8G]_T5.1] | > 2300 |
| UCUCUUCUACACUUAUUACCUCUCUU (ssRNA) [Id_ii_S1_P5E.4_K5.3_C5.2_H5.3_A5.1_F5.1_T5.2_[T11C]_[A12C]] | > 2300 |
